Substrate in the data set: O=CCCC(=O)C(=O)O
The data set is described as follows: purified protein. Format: biochemical, Corynebacterium glutamicum. The settings on record: 5 mM NAD+, 100 mM potassium phosphate, pH 7.5, 30 °C.

Broadly, the Km is the substrate concentration at which the rate is half of its maximum.

B1: KsaD (Cg0535) (Corynebacterium glutamicum ATCC 13032) (protein)
chain: MITATALHGCSLIDGEWVAGKNGEITGFDPRTNASLNPSYSLANSAQLRAATTSAKRAFESYRLTTPEVRADFLDSIADNIDALSGEIVQRASLETGLGTTRLTGEVARTSNQLRLFAETVRSGQFHRVRIERGPRIDLRQRQVPLGPVAVFGASNFPVAFSTAGGDTASALAAGCPVVFKAHNAHPGTAELVGQAVRGAVEKHEFDAGVFNLVYGRGVEIGQELAADPNITAIGFTGSRQGGLALSQTAFSRPVPVPVFAEMSATNPVFVFPGALADLDASSSLAEAFTASVTGSSGQLCTKPGLVFIPRGVVGDAFVALVAAKFKETTGQTMLTQGIAQAWQRGVDNLAAQPSVKILAQGTPGDGENAPGPVVFESDVQALLNNVVLQEEIFGAASLVVRYDSPDQLHQVANSLEGQLTATIHASQDDFQEVSKLIPLLEDLAGRVLYGGWPTGVEVGHTVIHGGPYPATSNAQSTSVGTLAIERFMRPVSYQTFPAELLPDPVSEANKWAVPREIDR
notes: N-terminus MITATA after tag (from primer)
Take B1: the Km is 870 µM.

The values are drawn from PMC6475665, “Alone at last! – Heterologous expression of a single gene is sufficient for establishing the five-step Weimberg pathway in Corynebacterium glutamicum” (Metabolic Engineering Communications, 2019).
